Legend:
[1] = biological target: T1, GSTCdc24–MBPFar1 complex, isolated by sequential purification on amylose and glutathione resin (S. cerevisiae, UniProt P11433;P21268); assay: pull-down
T1 sequence 1: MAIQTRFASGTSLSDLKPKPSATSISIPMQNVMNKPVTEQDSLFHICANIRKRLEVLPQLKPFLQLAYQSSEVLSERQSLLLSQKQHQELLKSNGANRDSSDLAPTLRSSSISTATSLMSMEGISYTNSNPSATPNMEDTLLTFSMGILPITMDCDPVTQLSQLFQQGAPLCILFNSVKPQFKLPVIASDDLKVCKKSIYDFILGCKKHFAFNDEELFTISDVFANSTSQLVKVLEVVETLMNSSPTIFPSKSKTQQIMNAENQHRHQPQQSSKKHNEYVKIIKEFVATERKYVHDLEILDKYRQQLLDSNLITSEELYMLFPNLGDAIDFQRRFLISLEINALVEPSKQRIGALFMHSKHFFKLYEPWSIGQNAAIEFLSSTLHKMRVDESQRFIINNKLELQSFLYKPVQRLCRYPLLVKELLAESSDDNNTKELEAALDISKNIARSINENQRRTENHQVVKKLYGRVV
T1 sequence 2: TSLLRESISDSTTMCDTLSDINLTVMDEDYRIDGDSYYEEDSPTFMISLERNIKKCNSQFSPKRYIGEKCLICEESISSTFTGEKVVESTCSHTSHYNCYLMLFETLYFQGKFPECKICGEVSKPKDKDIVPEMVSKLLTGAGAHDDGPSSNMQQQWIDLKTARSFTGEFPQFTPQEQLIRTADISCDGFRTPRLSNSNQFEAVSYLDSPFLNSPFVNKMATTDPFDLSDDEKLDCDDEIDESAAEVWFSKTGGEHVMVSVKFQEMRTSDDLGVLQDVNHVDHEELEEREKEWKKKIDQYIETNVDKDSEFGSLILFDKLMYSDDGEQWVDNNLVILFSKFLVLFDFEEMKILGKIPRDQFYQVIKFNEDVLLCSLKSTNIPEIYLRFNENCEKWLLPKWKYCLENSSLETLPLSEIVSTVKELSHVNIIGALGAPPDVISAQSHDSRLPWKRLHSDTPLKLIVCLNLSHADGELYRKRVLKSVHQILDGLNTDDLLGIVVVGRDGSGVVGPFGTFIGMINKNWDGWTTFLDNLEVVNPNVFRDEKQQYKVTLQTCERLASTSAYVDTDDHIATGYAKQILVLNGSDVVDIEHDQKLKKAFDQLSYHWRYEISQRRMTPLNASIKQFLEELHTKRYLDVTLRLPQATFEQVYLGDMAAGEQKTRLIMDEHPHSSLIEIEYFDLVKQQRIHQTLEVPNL

[2] = biological target: T2, GSTCdc24 (NH2-terminal 472 amino acids of Cdc24p fused to GST) (S. cerevisiae, UniProt P11433 1-472); assay: pull-down
T2 sequence: T1 sequence 1

B1: HASte4p purified from yeast (from HASte4-(TEV)-protein A, released with TEV protease) (natural protein)
chain: MAAHQMDSITYSNNVTQQYIQPQSLQDISAVEDEIQNKIEAARQESKQLHAQINKAKHKIQDASLFQMANKVTSLTKNKINLKPNIVLKGHNNKISDFRWSRDSKRILSASQDGFMLIWDSASGLKQNAIPLDSQWVLSCAISPSSTLVASAGLNNNCTIYRVSKENRVAQNVASIFKGHTCYISDIEFTDNAHILTASGDMTCALWDIPKAKRVREYSDHLGDVLALAIPEEPNSENSSNTFASCGSDGYTYIWDSRSPSAVQSFYVNDSDINALRFFKDGMSIVAGSDNGAINMYDLRSDCSIATFSLFRGYEERTPTPTYMAANMEYNTAQSPQTLKSTSSSYLDNQGVVSLDFSASGRLMYSCYTDIGCVVWDVLKGEIVGKLEGHGGRVTGVRSSPDGLAVCTGSWDSTMKIWSPGYQ
In the case of B1, the “fold HASte4p bound against a similar amount of GSTCdc24 alone” value [1] is reported as 2 fold and the “fold increase of HASte4p bound when MBPFar1 is added” value [2] is reported as roughly 2 fold.

— PMC2150586 (The Journal of Cell Biology, 1999)
